Reference: publication PMC2850121 (Structure (London, England : 1993), 2010)
Like-named read-outs stand apart in the source and are kept apart here.

Key:
[1] = target: C-terminally biotinylated IL-13Rα1 (UniProt P78552); assay: SPR
[2] = target: C-terminally biotinylated IL-13Rα2 (human) (UniProt Q14627); assay: SPR
[3] = target: T1, Human IL-13 (amino acids 21–132), wild type, fully glycosylated (human, UniProt P35225 35-146, fully glycosylated); assay: ITC
IL-13 K104A (human) = assay: ITC
IL-13 F107A (human) = assay: ITC
[4] = target: T1, Human IL-13 (amino acids 21–132), wild …; assay: ITC; remark: listed apart in the source

Work on IL-13 D87A (ligand) yielded a koff [1] of 0.00751 s⁻¹ and a kon [1] of 2.74e+06 M⁻¹ s⁻¹.

Work on IL-13 E15A (ligand) yielded a koff [1] of 0.00445 s⁻¹ and a kon [1] of 2.82e+06 M⁻¹ s⁻¹.

IL-13 F107A (ligand) gave a koff [2] of 0.000945 s⁻¹ and a kon [2] of 1.15e+07 M⁻¹ s⁻¹.

Molecule IL-13 I14A (ligand) has a koff [2] of 0.000152 s⁻¹ and a kon [2] of 1.79e+07 M⁻¹ s⁻¹.

In the case of IL-13 K104A (ligand), the koff [2] is reported as 0.00271 s⁻¹ and the kon [2] is reported as 9.64e+06 M⁻¹ s⁻¹.

Molecule IL-13 K105A (ligand) has a koff [1] of 0.00771 s⁻¹, a kon [1] of 1.31e+06 M⁻¹ s⁻¹ and a koff [2] of 1.06e-05 s⁻¹. For the same molecule, the kon [2] was 9.16e+06 M⁻¹ s⁻¹.

Molecule IL-13 L101A (ligand) has a koff [1] of 0.00463 s⁻¹ and a kon [1] of 3.53e+06 M⁻¹ s⁻¹.

In the case of IL-13 R11A (ligand), the koff [1] is reported as 0.00487 s⁻¹ and the kon [1] is reported as 1.87e+06 M⁻¹ s⁻¹.

IL-13 T88A (ligand) gave a koff [1] of 0.00488 s⁻¹.

Molecule IL-13 V18A (ligand) has a koff [1] of 0.00443 s⁻¹ and a kon [1] of 3.26e+06 M⁻¹ s⁻¹.

B1: IL-13Rα2 ectodomain (amino acids 29–331) (receptor, human, UniProt Q14627 29-331, looked up)
chain: EIKVNPPQDFEIVDPGYLGYLYLQWQPPLSLDHFKECTVEYELKYRNIGSETWKTIITKNLHYKDGFDLNKGIEAKIHTLLPWQCTNGSEVQSSWAETTYWISPQGIPETKVQDMDCVYYNWQYLLCSWKPGIGVLLDTNYNLFYWYEGLDHALQCVDYIKADGQNIGCRFPYLEASDYKDFYICVNGSSENKPIRSSYFTFQLQNIVKPLPPVYLTFTRESSCEIKLKWSIPLGPIPARCFDYEIEIREDDTTLVTATVENETYTLKTTNETRQLCFVVRSKVNIYCSDDGIWSEWSDKQCW
modifications: fully glycosylated
For B1, the dH [3] was -20.1 kcal/mol, the “stoichiometry N” value [3] was 0.943 and the dH (IL-13 K104A (human)) was -20.4 kcal/mol. For the same molecule, the stoichiometry N (IL-13 K104A (human)) was 0.884, the dH (IL-13 F107A (human)) was -17.1 kcal/mol and the stoichiometry N (IL-13 F107A (human)) was 0.949. The dH [4] was -20 kcal/mol and the “stoichiometry N” value [4] was 0.98.

B2: IL-13Rα1 soluble extracellular domain (receptor, UniProt P78552 22-343, looked up)
chain: GGGGAAPTETQPPVTNLSVSVENLCTVIWTWNPPEGASSNCSLWYFSHFGDKQDKKIAPETRRSIEVPLNERICLQVGSQCSTNESEKPSILVEKCISPPEGDPESAVTELQCIWHNLSYMKCSWLPGRNTSPDTNYTLYYWHRSLEKIHQCENIFREGQYFGCSFDLTKVKDSSFEQHSVQIMVKDNAGKIKPSFNIVPLTSRVKPDPPHIKNLSFHNDDLYVQWENPQNFISRCLFYEVEVNNSQTETHNVFYVQEAKCENPEFERNVENTSCFMVPGVLPDTLNTVRIRVKTNKLCYEDDKLWSNWSQEMSIGKKRNST
modifications: fully glycosylated
In the case of B2, the dH [4] is reported as -11.4 kcal/mol and the “stoichiometry N” value [4] is reported as 0.937.
